Experimental data taken from patent US20030138440A1 (published 2003).
Ends that are not written are not given here.

B1: chimeric fusion protein with the JUN-D-LL domain (other, not shown: large carriers)
chain: LSRLEEKLKTLKSQLTELASTLSLLREQLAQ
modifications: also: domain of chimeric fusion protein, fusion partner and linker not given here
B2: chimeric fusion protein with the CREB-Pa-IL domain (other, not shown: large carriers)
chain: IMSLEKKIEELTQTIMQLQNEISMLKNEIAQ
modifications: also: domain of chimeric fusion protein, fusion partner and linker not given here
notes: also called CREB-IL
B3: chimeric fusion protein with the ATF2-LI domain (other, not shown: large carriers)
chain: LQSIEKKLEDISSLLGQIQSELTLIRNELAQ
modifications: also: domain of chimeric fusion protein, fusion partner and linker not given here
B4: chimeric fusion protein with the CJUN-LL domain (other, not shown: large carriers)
chain: LARLEEKLKTLKAQLSELASTLNMLREQLAQ
modifications: also: domain of chimeric fusion protein, fusion partner and linker not given here
B5: chimeric fusion protein with the CREB-Pa-LL domain (other, not shown: large carriers)
chain: LMSLEKKLEELTQTLMQLQNELSMLKNELAQ
modifications: also: domain of chimeric fusion protein, fusion partner and linker not given here
notes: also called CREB-LL
B6: chimeric fusion protein with the ATF-1-IL domain (other, not shown: large carriers)
chain: IKSLENRIAVLENQIKTLIEEIKTLKDLISN
modifications: also: domain of chimeric fusion protein, fusion partner and linker not given here
B7: chimeric fusion protein with the ATF2-IL domain (other, not shown: large carriers)
chain: IQSLEKKIEDLSSLIGQLQSEITLLRNEIAQ
modifications: also: domain of chimeric fusion protein, fusion partner and linker not given here
B8: chimeric fusion protein with the JUN-D-LI domain (other, not shown: large carriers)
chain: LSRIEEKLKTIKSQLTEIASTLSLIREQLAQ
modifications: also: domain of chimeric fusion protein, fusion partner and linker not given here
B9: chimeric fusion protein with the ATF2-LL domain (other, not shown: large carriers)
chain: LQSLEKKLEDLSSLLGQLQSELTLLRNELAQ
modifications: also: domain of chimeric fusion protein, fusion partner and linker not given here
B10: chimeric fusion protein with the ATF-1-II domain (other, not shown: large carriers)
chain: IKSIENRIAVIENQIKTIIEEIKTIKDLISN
modifications: also: domain of chimeric fusion protein, fusion partner and linker not given here
B11: chimeric fusion protein with the ATF-1-LL domain (other, not shown: large carriers)
chain: LKSLENRLAVLENQLKTLIEELKTLKDLLSN
modifications: also: domain of chimeric fusion protein, fusion partner and linker not given here
B12: chimeric fusion protein with the CJUN-LI domain (other, not shown: large carriers)
chain: LARIEEKLKTIKAQLSEIASTLNMIREQLAQ
modifications: also: domain of chimeric fusion protein, fusion partner and linker not given here
B13: chimeric fusion protein with the CJUN-IL domain (other, not shown: large carriers)
chain: IARLEEKIKTLKAQISELASTINMLREQIAQ
modifications: also: domain of chimeric fusion protein, fusion partner and linker not given here

Molecular target: the molecule itself
Test: self-association of the chimeric protein; size exclusion HPLC
Protocol: By correlation with sedimentation velocity data, the multimerization state of additional ATFα-based domains was determined by size exclusion HPLC. HPLC size exclusion chromatography was performed on a column selected to resolve species of chimeric multimers ranging from dimers through pentamers. The selected column also resolved species including the Fab moiety of the chimera: Tetramers (6.5S by ultracentrifugation) consistently eluted from the column at 13.7±0.1 min.; trimers (5.5S) eluted at 14.0±0.1; and dimers (4.5S) eluted at 15.0±0.1 min. Data on additional domains is listed in Table 7 along with those determined by sedimentation.

Question: Does B1 bind?
Answer: Result: binds

Question: Does B2 bind?
Answer: Result: binds

Question: Does B3 bind?
Answer: Result: binds

Question: Does B4 bind?
Answer: Result: binds

Question: Does B5 bind?
Answer: Result: binds

Question: Does B6 bind?
Answer: Result: binds

Question: Does B7 bind?
Answer: Result: binds

Question: Does B8 bind?
Answer: Result: binds

Question: Does LKSIENRLAVIENQLKTIIEELKTIKDLLSN (other, not shown: large carriers, also: chimeric fusion protein, fusion partner and linker not given here, copies left open) [chimeric fusion protein with the ATF-1-LI domain] bind?
Answer: Result: binds

Question: Does B9 bind?
Answer: Result: binds

Question: Does B10 bind?
Answer: Result: binds

Question: Does LMSIEKKLEEITQTLMQIQNELSMIKNELAQ (other, not shown: large carriers, also: chimeric fusion protein, fusion partner and linker not given here, also called CREB-LI) [chimeric fusion protein with the CREB-Pa-LI domain] bind?
Answer: Result: binds

Question: Does B11 bind?
Answer: Result: binds

Question: Does B12 bind?
Answer: Result: binds

Question: Does B13 bind?
Answer: Result: binds

Molecular target: ICAM-1 on HeLa cells (human) (UniProt P05362)
Sequence (P05362 28-532): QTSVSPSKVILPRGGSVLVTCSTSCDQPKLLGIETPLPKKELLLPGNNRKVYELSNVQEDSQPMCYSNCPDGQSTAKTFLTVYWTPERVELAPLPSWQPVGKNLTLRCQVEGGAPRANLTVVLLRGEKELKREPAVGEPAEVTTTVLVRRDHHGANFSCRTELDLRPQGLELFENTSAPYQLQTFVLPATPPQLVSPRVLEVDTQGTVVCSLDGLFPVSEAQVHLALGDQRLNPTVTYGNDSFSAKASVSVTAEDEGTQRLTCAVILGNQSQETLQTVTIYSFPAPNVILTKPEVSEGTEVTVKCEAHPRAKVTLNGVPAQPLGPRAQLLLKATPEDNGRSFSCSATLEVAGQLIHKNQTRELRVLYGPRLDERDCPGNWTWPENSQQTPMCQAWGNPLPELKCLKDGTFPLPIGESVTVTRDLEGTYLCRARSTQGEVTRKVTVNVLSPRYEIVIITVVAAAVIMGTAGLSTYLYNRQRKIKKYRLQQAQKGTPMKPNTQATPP
Test: cell-based or functional assay

Question: For “anti-ICAM-1 monoclonal antibody RR/1 (Chemicon)”, which EC50, protection of HeLa cells from HRV15 infection is on record?
Answer: The EC50, protection of HeLa cells from HRV15 infection was > 10 nM.
